Data from paper PMC7857493.

Columns and labels:
[1] = molecular target: T1, Human neutrophil-derived myeloperoxidase (nMPO) (human), P05164; test: mass photometry; single-molecule mass photometry of intact nMPO on coverslips with silicone gaskets; apparent; diprotomer (ααββ) to monoprotomers (αβ)
[2] = molecular target: T1, Human neutrophil-derived …; test: native MS; whole unfractionated intact nMPO infused by nano-ESI (gold-coated capillaries) into a modified Q-Exactive, positive ion polarity

Kd [1]: 0.05 nM
percent diprotomer [1]: 93%
percent monoprotomer [1]: 7%
stoichiometry N [1]: 2
stoichiometry N [2]: 2
B1: Human neutrophil-derived myeloperoxidase (nMPO), P05164 279-745; P05164 279-745 (enzyme)
chain 1: not shown
chain 2: VNCETSCVQQPPCFPLKIPPNDPRIKNQADCIPFFRSCPACPGSNITIRNQINALTSFVDASMVYGSEEPLARNLRNMSNQLGLLAVNQRFQDNGRALLPFDNLHDDPCLLTNRSARIPCFLAGDTRSSEMPELTSMHTLLLREHNRLATELKSLNPRWDGERLYQEARKIVGAMVQIITYRDYLPLVLGPTAMRKYLPTYRSYNDSVDPRIANVFTNAFRYGHTLIQPFMFRLDNRYQPMEPNPRVPLSRVFFASWRVVLEGGIDPILRGLMATPAKLNRQNQIAVDEIRERLFEQVMRIGLDLPALNMQRSRDHGLPGYNAWRRFCGLPQPETVGQLGTVLRNLKLARKLMEQYGTPNNIDIWMGGVSEPLKRKGRVGPLLACIIGTQFRKLRDGDRFWWENEGVFSMQQRQALAQISLPRIICDNTGITTVSKNNIFMSNSYPRDFVNCSTLPALNLASWREAS
modifications: heme covalently links the α- and β-chains; Met251 and Met253 oxidation and Trp255 oxidation variants; polypeptide truncation variants | N-glycans at Asn323 and Asn483 (mainly paucimannosidic M2F-M3F), Asn355 and Asn391 (mainly oligomannosidic M5-M6), Asn729 (largely unoccupied or GlcNAc1-GlcNAc1F); Met and Trp mono-/di-oxidation, Tyr mono-chlorination; Cys319-Cys319 bridge between the two …
